Data from patent US20110300138A1 (published 2011).
Read-outs that look alike come from different tables or passages of the source.

How the values were obtained:
Assay in all cases: cell-based or functional assay
[1] = biological target: human TSH receptor (full length, wild type) expressed in CHO cells (human) (UniProt P16473)
[2] = biological target: human TSH receptor (full length, wild type) expressed in CHO cells (human) (UniProt P16473); remark: listed apart in the source
[3] = biological target: human TSHR (wild type, full length) expressed in CHO cells (human) (UniProt P16473)
[4] = biological target: human TSHR (thyroid stimulating hormone receptor) expressed in transfected CHO cells (human) (UniProt P16473)

In the case of 9D33 IgG (antibody), the % Inhibition; T10 serum + 100 µg/mL 9D33 IgG [1] was 95.4%, the % Inhibition; T11 serum + 100 µg/mL 9D33 IgG [1] was 87.1% and the % Inhibition; T12 serum + 100 µg/mL 9D33 IgG [1] was 91.7%. For the same substance, the Cyclic AMP concentration; 100 µg/mL 9D33 IgG alone [1] was 1.9 pmol/mL, the Cyclic AMP concentration; HBD + 100 µg/mL 9D33 IgG [1] was 3.2 pmol/mL and the Cyclic AMP concentration; T10 serum + 100 µg/mL 9D33 IgG [1] was 2.6 pmol/mL. It also gave a Cyclic AMP concentration; T11 serum + 100 µg/mL 9D33 IgG [1] of 5.3 pmol/mL, a Cyclic AMP concentration; T12 serum + 100 µg/mL 9D33 IgG [1] of 3.6 pmol/mL and a % Inhibition; T7 serum + 100 µg/mL 9D33 IgG [2] of 93%. It also gave a % Inhibition; T8 serum + 100 µg/mL 9D33 IgG [2] of 95%, a % Inhibition; T9 serum + 100 µg/mL 9D33 IgG [2] of 87.2% and a Cyclic AMP concentration; 100 µg/mL 9D33 IgG alone [2] of 2.4 pmol/mL. It also gave a Cyclic AMP concentration; HBD + 100 µg/mL 9D33 IgG [2] of 5.4 pmol/mL, a Cyclic AMP concentration; T7 serum + 100 µg/mL 9D33 IgG [2] of 6.3 pmol/mL and a Cyclic AMP concentration; T8 serum + 100 µg/mL 9D33 IgG [2] of 4.3 pmol/mL. The Cyclic AMP concentration; T9 serum + 100 µg/mL 9D33 IgG [2] was 7.2 pmol/mL, the % Inhibition of T8 serum stimulation; 0.01 µg/mL 9D33 IgG [3] was 12% and the % Inhibition of T8 serum stimulation; 0.1 µg/mL 9D33 IgG [3] was 56%. It also gave a % Inhibition of T8 serum stimulation; 1 µg/mL 9D33 IgG [3] of 91%, a % Inhibition of T8 serum stimulation; 10 µg/mL 9D33 IgG [3] of 93% and a % Inhibition of T8 serum stimulation; 100 µg/mL 9D33 IgG [3] of 93%. The Cyclic AMP concentration; 0.01 µg/mL 9D33 IgG + T8 [3] was 45.8 pmol/mL, the Cyclic AMP concentration; 0.1 µg/mL 9D33 IgG + T8 [3] was 22.9 pmol/mL and the Cyclic AMP concentration; 1 µg/mL 9D33 IgG + T8 [3] was 4.7 pmol/mL. The Cyclic AMP concentration; 10 µg/mL 9D33 IgG + T8 [3] was 3.7 pmol/mL, the Cyclic AMP concentration; 100 µg/mL 9D33 IgG + T8 [3] was 3.6 pmol/mL and the % Inhibition; 3 ng/mL M22 IgG + 0.001 µg/mL 9D33 IgG [4] was 9%. For the same substance, the % Inhibition; 3 ng/mL M22 IgG + 0.01 µg/mL 9D33 IgG [4] was 2%, the % Inhibition; 3 ng/mL M22 IgG + 0.1 µg/mL 9D33 IgG [4] was 66% and the % Inhibition; 3 ng/mL M22 IgG + 1 µg/mL 9D33 IgG [4] was 93%. It also gave a % Inhibition; 3 ng/mL M22 IgG + 10 µg/mL 9D33 IgG [4] of 94%, a % Inhibition; 3 ng/mL M22 IgG + 100 µg/mL 9D33 IgG [4] of 95% and a Cyclic AMP concentration; 3 ng/mL M22 IgG + 0.001 µg/mL 9D33 IgG [4] of 19.4 pmol/mL. For the same substance, the Cyclic AMP concentration; 3 ng/mL M22 IgG + 0.01 µg/mL 9D33 IgG [4] was 21 pmol/mL, the Cyclic AMP concentration; 3 ng/mL M22 IgG + 0.1 µg/mL 9D33 IgG [4] was 7.19 pmol/mL and the Cyclic AMP concentration; 3 ng/mL M22 IgG + 1 µg/mL 9D33 IgG [4] was 1.48 pmol/mL. The Cyclic AMP concentration; 3 ng/mL M22 IgG + 10 µg/mL 9D33 IgG [4] was 1.2 pmol/mL, the Cyclic AMP concentration; 3 ng/mL M22 IgG + 100 µg/mL 9D33 IgG [4] was 1.01 pmol/mL and the Cyclic AMP concentration; 100 µg/mL 9D33 IgG [4] was 1.31 pmol/mL.
